Experimental data reported in the supplement of paper PMC11246515.
± gives the standard deviation of the averaged measurements.

Assay: total protein half-life in vivo (active degradation + dilution); higher = more stable protein
[1] = E. coli NCM3722 delta-clpP delta-lon delta-hslV, growth: N-lim chemostat, doubling time 6 h
[2] = E. coli NCM3722 delta-clpP, growth: N-lim chemostat, doubling time 6 h
[3] = E. coli NCM3722 delta-hslV, growth: N-lim chemostat, doubling time 6 h
[4] = E. coli NCM3722 delta-smpB, growth: N-lim chemostat, doubling time 6 h
[5] = wild type E. coli NCM3722, growth: C-lim chemostat, doubling time 3 h
[6] = wild type E. coli NCM3722, growth: C-lim chemostat, doubling time 6 h
[7] = wild type E. coli NCM3722, growth: C-lim chemostat, doubling time 12 h
[8] = wild type E. coli NCM3722, growth: N-lim chemostat, doubling time 6 h
[9] = wild type E. coli NCM3722, growth: N-lim chemostat, doubling time 12 h
[10] = wild type E. coli NCM3722, growth: P-lim chemostat, doubling time 6 h
[11] = wild type E. coli NCM3722, growth: P-lim chemostat, doubling time 12 h
[12] = E. coli NCM3722 delta-lon, growth: N-lim chemostat, doubling time 6 h

## MLRLLEEKIATPLGPLWVICDEQFRLRAVEWEEYSERMVQLLDIHYRKEGYERISATNPGGLSDKLREYFAGNLSIIDTLPTATGGTPFQREVWKTLRTIPCGQVMHYGQLAEQLGRPGAARAVGAANGSNPISIVVPCHRVIGRNGTMTGYAGGVQRKEWLLRHEGYLLL [P0AFH0]
[1]
  total protein half-life in vivo: 5.81 ± 0.46 h
[2]
  total protein half-life in vivo: 4.8 ± 0.28 h
[3]
  total protein half-life in vivo: 6.05 ± 1.3 h
[4]
  total protein half-life in vivo: 3.86 ± 0.21 h
[5]
  total protein half-life in vivo: 2.61 h
[6]
  total protein half-life in vivo: 5.29 ± 0.24 h
[7]
  total protein half-life in vivo: 10.4 ± 0.61 h
[8]
  total protein half-life in vivo: 4.55 ± 0.71 h
[9]
  total protein half-life in vivo: 7.793 ± 0.026 h
[10]
  total protein half-life in vivo: 5.07 ± 0.087 h
[11]
  total protein half-life in vivo: 8.9 ± 0.66 h

## MLRMTPLASAIVALLLGIEAYAAEETFDTHFMIGGMKDQQVANIRLDDNQPLPGQYDIDIYVNKQWRGKYEIIVKDNPQETCLSREVIKRLGINSDNFASGKQCLTFEQLVQGGSYTWDIGVFRLDFSVPQAWVEELESGYVPPENWERGINAFYTSYYLSQYYSDYKASGNNKSTYVRFNSGLNLLGWQLHSDASFSKTNNNPGVWKSNTLYLERGFAQLLGTLRVGDMYTSSDIFDSVRFRGVRLFRDMQMLPNSKQNFTPRVQGIAQSNALVTIEQNGFVVYQKEVPPGPFAITDLQLAGGGADLDVSVKEADGSVTTYLVPYAAVPNMLQPGVSKYDLAAGRSHIEGASKQSDFVQAGYQYGFNNLLTLYGGSMVANNYYAFTLGAGWNTRIGAISVDATKSHSKQDNGDVFDGQSYQIAYNKFVSQTSTRFGLAAWRYSSRDYRTFNDHVWANNKDNYRRDENDVYDIADYYQNDFGRKNSFSANMSQSLPEGWGSVSLSTLWRDYWGRSGSSKDYQLSYSNNLRRISYTLAASQAYDENHHEEKRFNIFISIPFDWGDDVSTPRRQIYMSNSTTFDDQGFASNNTGLSGTVGSRDQFNYGVNLSHQHQGNETTAGANLTWNAPVATVNGSYSQSSTYRQAGASVSGGIVAWSGGVNLANRLSETFAVMNAPGIKDAYVNGQKYRTTNRNGVVIYDGMTPYRENHLMLDVSQSDSEAELRGNRKIAAPYRGAVVLVNFDTDQRKPWFIKALRADGQSLTFGYEVNDIHGHNIGVVGQGSQLFIRTNEVPPSVNVAIDKQQGLSCTITFGKEIDESRNYICQ
[11]
  total protein half-life in vivo: 9.63 h

## MLRPVETPTREIKKLDGLWAFSLDRENCGIDQRWWESALQESRAIAVPGSFNDQFADADIRNYAGNVWYQREVFIPKGWAGQRIVLRFDAVTHYGKVWVNNQEVMEHQGGYTPFEADVTPYVIAGKSVRITVCVNNELNWQTIPPGMVITDENGKKKQSYFHDFFNYAGIHRSVMLYTTPNTWVDDITVVTHVAQDCNHASVDWQVVANGDVSVELRDADQQVVATGQGTSGTLQVVNPHLWQPGEGYLYELCVTAKSQTECDIYPLRVGIRSVAVKGEQFLINHKPFYFTGFGRHEDADLRGKGFDNVLMVHDHALMDWIGANSYRTSHYPYAEEMLDWADEHGIVVIDETAAVGFNLSLGIGFEAGNKPKELYSEEAVNGETQQAHLQAIKELIARDKNHPSVVMWSIANEPDTRPQGAREYFAPLAEATRKLDPTRPITCVNVMFCDAHTDTISDLFDVLCLNRYYGWYVQSGDLETAEKVLEKELLAWQEKLHQPIIITEYGVDTLAGLHSMYTDMWSEEYQCAWLDMYHRVFDRVSAVVGEQVWNFADFATSQGILRVGGNKKGIFTRDRKPKSAAFLLQKRWTGMNFGEKPQQGGKQ
[5]
  total protein half-life in vivo: 2.85 ± 0.27 h
[6]
  total protein half-life in vivo: 5.46 ± 0.52 h
[7]
  total protein half-life in vivo: 8.91 ± 1.3 h

## MLRVYHSNRLDVLEALMEFIVERERLDDPFEPEMILVQSTGMAQWLQMTLSQKFGIAANIDFPLPASFIWDMFVRVLPEIPKESAFNKQSMSWKLMTLLPQLLEREDFTLLRHYLTDDSDKRKLFQLSSKAADLFDQYLVYRPDWLAQWETGHLVEGLGEAQAWQAPLWKALVEYTHQLGQPRWHRANLYQRFIETLESATTCPPGLPSRVFICGISALPPVYLQALQALGKHIEIHLLFTNPCRYYWGDIKDPAYLAKLLTRQRRHSFEDRELPLFRDSENAGQLFNSDGEQDVGNPLLASWGKLGRDYIYLLSDLESSQELDAFVDVTPDNLLHNIQSDILELENRAVAGVNIEEFSRSDNKRPLDPLDSSITFHVCHSPQREVEVLHDRLLAMLEEDPTLTPRDIIVMVADIDSYSPFIQAVFGSAPADRYLPYAISDRRARQSHPVLEAFISLLSLPDSRFVSEDVLALLDVPVLAARFDITEEGLRYLRQWVNESGIRWGIDDDNVRELELPATGQHTWRFGLTRMLLGYAMESAQGEWQSVLPYDESSGLIAELVGHLASLLMQLNIWRRGLAQERPLEEWLPVCRDMLNAFFLPDAETEAAMTLIEQQWQAIIAEGLGAQYGDAVPLSLLRDELAQRLDQERISQRFLAGPVNICTLMPMRSIPFKVVCLLGMNDGVYPRQLAPLGFDLMSQKPKRGDRSRRDDDRYLFLEALISAQQKLYISYIGRSIQDNSERFPSVLVQELIDYIGQSHYLPGDEALNCDESEARVKAHLTCLHTRMPFDPQNYQPGERQSYAREWLPAASQAGKAHSEFVQPLPFTLPETVPLETLQRFWAHPVRAFFQMRLQVNFRTEDSEIPDTEPFILEGLSRYQINQQLLNALVEQDDAERLFRRFRAAGDLPYGAFGEIFWETQCQEMQQLADRVIACRQPGQSMEIDLACNGVQITGWLPQVQPDGLLRWRPSLLSVAQGMQLWLEHLVYCASGGNGESRLFLRKDGEWRFPPLAAEQALHYLSQLIEGYREGMSAPLLVLPESGGAWLKTCYDAQNDAMLDDDSTLQKARTKFLQAYEGNMMVRGEGDDIWYQRLWRQLTPETMEAIVEQSQRFLLPLFRFNQS
[1]
  total protein half-life in vivo: 5.23 ± 0.17 h
[2]
  total protein half-life in vivo: 4.28 ± 0.21 h
[3]
  total protein half-life in vivo: 3.58 ± 0.068 h
[12]
  total protein half-life in vivo: 4.13 ± 0.12 h
[4]
  total protein half-life in vivo: 3.63 ± 0.41 h
[5]
  total protein half-life in vivo: 3.44 ± 0.61 h
[6]
  total protein half-life in vivo: 5.57 ± 0.32 h
[7]
  total protein half-life in vivo: 13 ± 2.4 h
[8]
  total protein half-life in vivo: 4.32 ± 0.95 h
[9]
  total protein half-life in vivo: 6.21 ± 0.64 h
[10]
  total protein half-life in vivo: 6.1 ± 0.47 h
[11]
  total protein half-life in vivo: 11.3 ± 0.4 h

## MLSKQIPLGIYEKALPAGECWLERLQLAKTLGFDFVEMSVDETDDRLSRLNWSREQRLALVNAIVETGVRVPSMCLSAHRRFPLGSEDDAVRAQGLEIMRKAIQFAQDVGIRVIQLAGYDVYYQEANNETRRRFRDGLKESVEMASRAQVTLAMEIMDYPLMSSISKALGYAHYLNNPWFQLYPDIGNLSAWDNDVQMELQAGIGHIVAVHVKDTKPGVFKNVPFGEGVVDFERCFETLKQSGYCGPYLIEMWSETAEDPAAEVAKARDWVKARMAKAGMVEAA
[1]
  total protein half-life in vivo: 5.97 h

## MLSPLLKRYTWNSAWLYYARIFIALCGTTAFPWWLGDVKLTIPLTLGMVAAALTDLDDRLAGRLRNLIITLFCFFIASASVELLFPWPWLFAIGLTLSTSGFILLGGLGQRYATIAFGALLIAIYTMLGTSLYEHWYQQPMYLLAGAVWYNVLTLIGHLLFPVRPLQDNLARCYEQLARYLELKSRMFDPDIEDQSQAPLYDLALANGLLMATLNQTKLSLLTRLRGDRGQRGTRRTLHYYFVAQDIHERASSSHIQYQTLREHFRHSDVLFRFQRLMSMQGQACQQLSRCILLRQPYQHDPHFERAFTHIDAALERMRDNGAPADLLKTLGFLLNNLRAIDAQLATIESEQAQALPHNNDENELADDSPHGLSDIWLRLSRHFTPESALFRHAVRMSLVLCFGYAIIQITGMHHGYWILLTSLFVCQPNYNATRHRLKLRIIGTLVGIAIGIPVLWFVPSLEGQLVLLVITGVLFFAFRNVQYAHATMFITLLVLLCFNLLGEGFEVALPRVIDTLIGCAIAWAAVSYIWPDWQFRNLPRMLERATEANCRYLDAILEQYHQGRDNRLAYRIARRDAHNRDAELASVVSNMSSEPNVTPQIREAAFRLLCLNHTFTSYISALGAHREQLTNPEILAFLDDAVCYVDDALHHQPADEERVNEALASLKQRMQQLEPRADSKEPLVVQQVGLLIALLPEIGRLQRQITQVPQETPVSA
[1]
  total protein half-life in vivo: 5.89 h
[2]
  total protein half-life in vivo: 5.69 h
[4]
  total protein half-life in vivo: 5.95 ± 0.25 h
[5]
  total protein half-life in vivo: 3.21 ± 0.3 h
[7]
  total protein half-life in vivo: > 16 h
[8]
  total protein half-life in vivo: 5.03 ± 1.3 h
[9]
  total protein half-life in vivo: 13.4 h
[10]
  total protein half-life in vivo: 6.49 ± 0.13 h

## MLSRHINYFLAVAEHGSFTRAASALHVSQPALSQQIRQLEESLGVPLFDRSGRTIRLTDAGEVWRQYASRALQELGAGKRAIHDVADLTRGSLRIAVTPTFTSYFIGPLMADFYARYPSITLQLQEMSQEKIEDMLCRDELDVGIAFAPVHSPELEAIPLLTESLALVVAQHHPLAVHEQVALSRLHDEKLVLLSAEFATREQIDHYCEKAGLHPQVVIEANSISAVLELIRRTSLSTLLPAAIATQHDGLKAISLAPPLLERTAVLLRRKNSWQTAAAKAFLHMALDKCAVVGGNESR
[1]
  total protein half-life in vivo: 5.07 ± 0.31 h
[12]
  total protein half-life in vivo: 6.84 h
[5]
  total protein half-life in vivo: 2.02 ± 0.18 h
[6]
  total protein half-life in vivo: 4.75 ± 0.2 h
[7]
  total protein half-life in vivo: 6.21 h
[9]
  total protein half-life in vivo: 12.6 h
[10]
  total protein half-life in vivo: 5.54 h
[11]
  total protein half-life in vivo: 5.16 ± 2 h

## MLTKDLSITFCGVKFPNPFCLSSSPVGNCYEMCAKAYDTGWGGVVFKTIGFFIANEVSPRFDHLVKEDTGFIGFKNMEQIAEHPLEENLAALRRLKEDYPDKVLIASIMGENEQQWEELARLVQEAGADMIECNFSCPQMTSHAMGSDVGQSPELVEKYCRAVKRGSTLPMLAKMTPNIGDMCEVALAAKRGGADGIAAINTVKSITNIDLNQKIGMPIVNGKSSISGYSGKAVKPIALRFIQQMRTHPELRDFPISGIGGIETWEDAAEFLLLGAATLQVTTGIMQYGYRIVEDMASGLSHYLADQGFDSLQEMVGLANNNIVPAEDLDRSYIVYPRINLDKCVGCGRCYISCYDGGHQAMEWSEKTRTPHCNTEKCVGCLLCGHVCPVGCIELGEVKFKKGEKEHPVTL
[1]
  total protein half-life in vivo: 4.6 h
[5]
  total protein half-life in vivo: 0.869 ± 0.52 h
[6]
  total protein half-life in vivo: 2.35 h
[7]
  total protein half-life in vivo: 1.67 ± 0.23 h
